Measured values published in US20210363269A1 (ALX ONCOLOGY, published 2021).
Changes are numbered by the printed parent chain.

B1: antibody 191 (antibody, V domains shown)
VH: DVQLVESGGGVVRPGESLRLSCAASGFSFSSYAMNWVRQAPGEGLEWVSRINSGGGGTDYAESVKGRFTISRDNSENTLYLQMNSLRAEDTAVYYCAKQYDWNGFFDYWGLGALVTVSS
VL: ETVLTQSPATLSVSPGERATLSCRASQTVGSKLAWHQQKPGQAPRLLIYDATNRATGIPDRFSGSGSGTDFTLTISGLQTEDSAVYYCQQYYYWPPYRFGGGTKVEIK
notes: also called S191
B2: antibody 198 (antibody, V domains shown)
VH: B1 VH with Y32H
VL: B1 VL with G77S
notes: also called S198
B3: antibody 16 (antibody, V domains shown)
VH: DVQLVESGGGVVRPGESLRLSCAVSGFRFSSYAMSWVRQAPGKGLEWVSGISSGGDTYYVDSVKGRFTISRDNSKNTLYLQVNSLTAEDTAIYYCARETWNHLFDYWGLGTLVTVSS
VL: ALTQPASVSANLGETVKITCSGGDSSSHYYGWYQQKSPGSAPVTVIYSDDERPSDIPSRFSGSASGSTATLTITGVRVEDEAIYYCGAYDGSTYANTFGAGTTLTVL
notes: also called S16
B4: antibody 73 (antibody, V domains shown)
VH: DVQLVESGGGVVRPGESLRLSCEASGFTFSSNAMSWARQAPGKGLEWVAGISSGSDTYYGDSVKGRLTISRDNSKNILYLQMNSLTAEDTAVYYCARETWNHLFDYWGLGTLVTVSS
VL: ALTQPASVSANPGETVKITCSGGIYSSYYYAWYQQKSPGSAPVTLIYSDDKRPSNIPSRFSGSASGSTATLTITGVRAEDEAVYFCGGYDQSSYTNPFGAGTTLTVL
notes: also called S73
B5: antibody 202 (antibody, V domains shown)
VH: DVQLVESGGGVVRPGESLRLSCAASGFTFSSYAMSWVRQAPGKGLEWLAGISAGGSDTYYIDSVKGRFTISRDNSKNSLYLQMNSLTAEDTAVYYCARETWNHLFDYWGLGTLVTVSS
VL: ALTQPASVSANPGETVKITCSGGGYYSTYYGWYQQRSPGSAPVTVIHSDDKRPSDIPSRFSGSASGSAATLTITGVRVEDEAVYYCAGYDGRTYLNTFGAGTTLTVL
notes: also called S202
B6: antibody 201 (antibody, V domains shown)
VH: DVQLVESGGAVVRPGETLRLSCTASGFTFSSYAMSWVRQAPGKGLEWVSGISASGSDTYYADSVKGRSTISRDNSKNTLYLRMSSLTAEDTAVYYCARETWNHLFDYWGLGTLVTVSS
VL: ALTQPASVSANPGETVKITCSGGGTSSYYGWYQQKSPGSAPVTLIHSDDKRPSDIPSRFSGSASGSTATLTITGVQVEDEAVYYCGGYDYTTYVNTFGAGTTLTVL
notes: also called S201
B7: antibody 175 (antibody, V domains shown)
VH: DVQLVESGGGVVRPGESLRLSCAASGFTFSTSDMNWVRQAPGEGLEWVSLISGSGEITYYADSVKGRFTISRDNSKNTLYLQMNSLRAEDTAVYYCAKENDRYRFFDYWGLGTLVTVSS
VL: ETVLTQSPGILSLSPGERATLTCRASQSVYTYLAWYQEKPGQAPRLLIYGASSRAAGIPDRFSGSGSGTEFTLTISSLQSEDFAVYYCQQYYDRPPLTFGGGTKVEIK
notes: also called S175
B8: antibody 189 (antibody, V domains shown)
VH: DVQLVESGGGVVRPGESLRLSCAASGFTFSSSDMNWVRQAPGEGLEWVSLISGSGEITYYADSVKGRFTISRDNSKNTLYLQMNSLRAEDTAIYYCAKENNMYRFFDYWGLGTLVTVSS
VL: B7 VL with I10T, T22S, E38Q, A43P, Y49H, G50A, S52R, S53N
notes: also called S189
B9: antibody 3 (antibody, V domains shown)
VH: AVTLDESGGGLQTPGGALSLVCKASGFIFSDYGMNWVRQAPGKGLEFVAQITSGSRTYYGAAVKGRATISRDNRQSTVKLQLNNLRAEDTGIYFCARDFGSGVGSIDAWGNGTEVIVSS
VL: ALTQPASVSANLGGTVKITCSGSRGRYGWYQQRSPGSAPVTVIYRDNQRPSNIPSRFSSSTSGSTSTLTITGVQADDESVYFCGSYDGSIDIFGAGTTLTVL
notes: also called AB3; S3
B10: antibody 218 (antibody, V domains shown)
VH: DVQLVESGGGVVRPGESLTLSCTASGFTFTSSTMNWVRQAPGEGLDWVSSISTSGVITYYADSVKGRATISRDNSKNTLYLRLFSLRADDTAIYYCATDTFDHWGPGTLVTVSS
VL: ALTQPASVSANPGETVKITCFGSSGNYGWFQQKSPGSAPVTVIHYNNKRPSDIPSRFSGSKSGSTGTLTITGVRAEDEAVYFCGAWETGSATFGAGTTLTVL
notes: also called AB218; S218
B11: S73 (scFv, V domains shown)
VH: B4 VH
VL: B4 VL
notes: also called clone 73
B12: S28 (scFv, V domains shown)
VH: DVQLVESGGGVVRPGESLRLSCAASGFSFSSNAMSWVRQAPGKGLEWVAGISASGDTYYSGSMKGRFTISRDNSKNTLYLQMNSLTAEDTAVYYCARETWNHLFDYWGLGTLVTVSS
VL: ALTQPASVSANPGETVKITCSGGSDSYYYGWHQQKSPGSAPVTVIYSDDQRPPDIPSRFSGSASGSTTTLTITGVRAEDEAVYYCGGYDYSTYTNTFGAGTTLTVL
notes: also called clone 28
B13: S201 (scFv, V domains shown)
VH: B6 VH
VL: B6 VL
B14: S206 (scFv, V domains shown)
VH: B6 VH with V116L
VL: B6 VL with V77A
B15: S3 (scFv, V domains shown)
VH: B9 VH
VL: B9 VL
notes: also called clone 3; scFv-Fc form of AB3

Biological target: T1, mouse 129 SIRP-α (mouse (129 strain), UniProt P97797 32-150)
T1 construct: also called m129
T1 chain: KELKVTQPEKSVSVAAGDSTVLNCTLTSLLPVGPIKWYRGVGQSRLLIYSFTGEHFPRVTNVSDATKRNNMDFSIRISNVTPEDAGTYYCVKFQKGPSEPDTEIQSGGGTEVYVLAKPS
Test: SPR Koff +/-
Summary of the method: (§1)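 Antibodies were amine-coupled (GLC chip) or captured via biotinylated Protein A (NLC chip) on a ProteOn XPR36, and SIRP analytes were injected in one-shot kinetic mode at 25° C in PBS pH 7.4 with 0.01% Tween-20. KD is kd/ka from apparent rate constants given by a global simple Langmuir fit of double-referenced data, with analyte concentrations nominal.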

Binder | binding result
B1 | no binding
B2 | no binding

biological target: T2, human SIRP-α v1 (human, UniProt P78324 31-149); test: SPR
T2 construct: also called Human v1; Human V1
T2 sequence (P78324 31-149 limits assumed): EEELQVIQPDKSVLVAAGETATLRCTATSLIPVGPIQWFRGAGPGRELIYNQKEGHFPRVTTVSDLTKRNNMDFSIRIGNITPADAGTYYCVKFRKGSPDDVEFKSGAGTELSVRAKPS
Summary of the method: as §1

Binder | Kd
B3 | < 0.001 nM
B4 | < 0.001 nM
B5 | < 0.001 nM
B6 | < 0.001 nM
B7 | 0.137 nM
B8 | 0.31 nM
B9 | 0.162 nM
B10 | 0.123 nM

biological target: T3, human SIRP-α v2 (human); test: SPR
T3 construct: also called Human v2; Human V2
Summary of the method: as §1

Binder | Kd
B3 | < 0.001 nM
B4 | < 0.001 nM
B5 | < 0.001 nM
B6 | 0.00487 nM
B7 | 0.662 nM
B8 | 1.9 nM
B9 | 0.0767 nM
B10 | 0.276 nM

biological target: T4, human SIRPγ isoform 1 (human, UniProt Q9P1W8 29-147); test: SPR, Langmuir fit
T4 construct: also called SIRPg; sirpg
T4 sequence (Q9P1W8 29-147 limits assumed): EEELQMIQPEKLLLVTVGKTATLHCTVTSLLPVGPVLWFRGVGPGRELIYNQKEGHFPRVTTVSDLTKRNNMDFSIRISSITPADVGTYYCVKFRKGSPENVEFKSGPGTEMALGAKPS
Summary of the method: (§2)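 Dissociation rate constants (koff) were measured on a ProteOn XPR36 instrument by Langmuir model fitting. Antibody clones in scFv-Fc format were captured from pre-filtered culture media onto a GLC chip with about 4000 RU of amine-coupled anti-human IgG Fc. SIRP analytes ran in PBS pH 7.4 with 0.01% Tween-20 at 25° C, and the model used was 1:1, applied to data double-referenced against interspot and buffer-blank responses.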

Binder | koff
B11 | 7.3e-05 s⁻¹
B12 | 3.27e-05 s⁻¹
B13 | 0.000185 s⁻¹
B14 | 0.000192 s⁻¹
B15 | 0.000162 s⁻¹

Biological target: T5, cynomolgus SIRP-α D1 domain (cyno2) (cynomolgus monkey, UniProt Q5TFQ8 30-148 (human entry), limits assumed)
T5 chain: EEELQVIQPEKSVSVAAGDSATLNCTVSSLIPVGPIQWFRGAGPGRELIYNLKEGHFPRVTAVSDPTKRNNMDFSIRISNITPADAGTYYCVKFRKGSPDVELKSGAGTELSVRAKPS
Test: SPR, Langmuir fit
Summary of the method: as §2

Binder | koff
B11 | 0.000119 s⁻¹
B12 | 0.000132 s⁻¹
B13 | 0.000522 s⁻¹
B14 | 0.000518 s⁻¹
B15 | 0.00174 s⁻¹

Biological target: T6, NOD mouse SIRP-α D1 domain (mouse (NOD strain))
T6 chain: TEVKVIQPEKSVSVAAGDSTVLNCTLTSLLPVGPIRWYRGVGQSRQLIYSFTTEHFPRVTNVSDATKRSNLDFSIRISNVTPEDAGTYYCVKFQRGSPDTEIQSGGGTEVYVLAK
Test: SPR, Langmuir fit
Summary of the method: as §2

Binder | koff
B11 | 0.00148 s⁻¹
B12 | 0.000616 s⁻¹
B13 | 0.00215 s⁻¹
B14 | 0.00223 s⁻¹
B15 | 0.00119 s⁻¹

Biological target: T7, cynomolgus SIRP-α D1 domain (cyno1) (cynomolgus monkey, UniProt Q5TFQ8 30-148 (human entry), limits assumed)
T7 chain: T5 chain with D19E, V27A, S28T, A42V, N51H, L52Q, A62P
Test: SPR, Langmuir fit
Summary of the method: as §2

Binder | koff
B11 | 0.000127 s⁻¹
B12 | 0.000115 s⁻¹
B13 | 0.000636 s⁻¹
B14 | 0.000624 s⁻¹
B15 | 0.00218 s⁻¹

biological target: T8, C57BL/6 mouse SIRP-α D1 domain (mouse (C57BL/6 strain), UniProt P97797 32-148); test: SPR, Langmuir fit
T8 sequence: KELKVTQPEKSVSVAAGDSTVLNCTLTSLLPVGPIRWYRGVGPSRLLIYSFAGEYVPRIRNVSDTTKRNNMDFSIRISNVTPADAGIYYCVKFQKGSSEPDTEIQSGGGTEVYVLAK
Summary of the method: as §2

Binder | koff
B11 | 0.000373 s⁻¹
B12 | 0.00186 s⁻¹
B13 | 0.00111 s⁻¹
B14 | 0.00157 s⁻¹
B15 | 0.00197 s⁻¹

biological target: T9, human SIRP-α v2 D1 domain (human); test: SPR, Langmuir fit
T9 construct: also called human v2
T9 sequence (chain, as listed by the source limits assumed): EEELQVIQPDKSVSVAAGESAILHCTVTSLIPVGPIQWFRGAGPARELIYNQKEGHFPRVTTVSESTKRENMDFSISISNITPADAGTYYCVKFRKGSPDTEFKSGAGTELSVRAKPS
Summary of the method: as §2

Binder | koff
B11 | 7.49e-05 s⁻¹
B12 | 1.47e-05 s⁻¹
B13 | 4.27e-05 s⁻¹
B14 | 3.6e-05 s⁻¹
B15 | 0.000276 s⁻¹

Biological target: T10, mouse 129 SIRP-α D1 domain (mouse (129 strain), UniProt P97797 32-150)
T10 construct: also called m129
T10 chain: T1 chain
Test: SPR, Langmuir fit
Summary of the method: as §2

Binder | koff
B11 | 0.000164 s⁻¹
B12 | 0.000306 s⁻¹
B13 | 0.000818 s⁻¹
B14 | 0.000901 s⁻¹
B15 | 0.000655 s⁻¹

biological target: T11, human SIRP-α v1 D1 domain (human, UniProt P78324 31-149); test: SPR, Langmuir fit
T11 construct: also called human v1
T11 sequence (P78324 31-149 limits assumed): as the sequence (P78324 31-149 limits assumed) above
Summary of the method: as §2

Binder | koff
B11 | 1.9e-05 s⁻¹
B12 | 2.11e-05 s⁻¹
B13 | 3.46e-05 s⁻¹
B14 | 3.5e-05 s⁻¹
B15 | 0.00041 s⁻¹

biological target: T12, human SIRPβ isoform 1 (human, UniProt O00241 30-148); test: SPR, Langmuir fit
T12 construct: also called SIRPb; sirpb1
T12 sequence (O00241 30-148 limits assumed): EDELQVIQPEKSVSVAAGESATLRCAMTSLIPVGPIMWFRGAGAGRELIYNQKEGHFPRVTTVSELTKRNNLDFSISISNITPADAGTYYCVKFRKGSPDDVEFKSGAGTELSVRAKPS
Summary of the method: as §2

Binder | koff
B11 | 0.000108 s⁻¹
B12 | 6.29e-05 s⁻¹
B13 | 0.0041 s⁻¹
B14 | 0.00437 s⁻¹
B15 | 0.00192 s⁻¹

Biological target: T13, high affinity SIRP-α D1 variant CV1-3
T13 chain: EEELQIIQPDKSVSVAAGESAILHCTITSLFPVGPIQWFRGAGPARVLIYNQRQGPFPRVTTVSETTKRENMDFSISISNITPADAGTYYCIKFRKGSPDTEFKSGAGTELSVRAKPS
Test: SPR, Langmuir fit
Summary of the method: as §2

Binder | koff
B11 | 5.28e-05 s⁻¹
B12 | 6.59e-05 s⁻¹
B13 | 8.32e-05 s⁻¹
B14 | 8.22e-05 s⁻¹
B15 | 0.000394 s⁻¹
